Assay results published in the supplement of paper PMC10126150.
± gives the standard deviation of the averaged measurements.

What follows are sequences tested on ATP (assay: switch fluorescence ratio, 500 uM ATP over buffer (Cy3 cluster intensity, sum of 5 cycles each) (fold (ratio)); higher = stronger signal-on switching upon ATP binding; sequences stand for … in TCGTCGGCAGCGTCAGATGTGTATAAGAGACAGTTTTTTTTTTTTTTTTTTTTTTTTT…TC). Conditions: aptamer strand: ATP DNA aptamer (quencher-CACCTGGGGGAGTATTGCGGAGGAAGG + anchor), 100 nM annealed; ATP concentration: 500 uM.
Summary of the method: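 Exposure to 500 uM ATP lasted 15 min at 22 °C before imaging, and a selection-buffer image was taken beforehand, for Cy3-labelled switching-strand clusters on a modified Illumina MiSeq flow-cell annealed to 100 nM quencher-labelled ATP aptamer. Five buffer/ATP cycles were run with NaOH stripping and re-annealing between them. The fluorescence ratio per cluster is summed target-cycle over summed buffer-cycle Cy3 intensity, averaged per switch-domain sequence. Clusters outside 100-1000 RFU were excluded.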
CTGTTTTTGT showed a switch fluorescence ratio of 1.01 ± 0.024. With CTTAAAATGG the switch fluorescence ratio was 1.03 ± 0.038. CTTAAACAGC was tested, and the switch fluorescence ratio was 1.02 ± 0.063. CTTAAAGAGT gave a switch fluorescence ratio of 0.964 ± 0.043. CTTAAAGGTC showed a switch fluorescence ratio of 1.02 ± 0.052. In the case of CTTAAATATG, the switch fluorescence ratio is reported as 1 ± 0.012. CTTAAATGTT gave a switch fluorescence ratio of 1.014 ± 0.0078. For CTTAATTATA, the switch fluorescence ratio was 1.01 ± 0.015. Work on CTTAATTTGA yielded a switch fluorescence ratio of 0.984 ± 0.058. Sequence CTTACATTGC has a switch fluorescence ratio of 1.05 ± 0.029. For CTTACCTTGC, the switch fluorescence ratio was 1.99 ± 0.44. CTTACGGCAC showed a switch fluorescence ratio of 1.82 ± 0.062. CTTACGGGCA showed a switch fluorescence ratio of 1.03 ± 0.033. Sequence CTTACGTCTG has a switch fluorescence ratio of 1.01 ± 0.015. CTTACTATTG was tested, and the switch fluorescence ratio was 1.03 ± 0.05. For CTTAGATGTT, the switch fluorescence ratio was 0.963 ± 0.024. Sequence CTTAGCTAGA has a switch fluorescence ratio of 1.0428 ± 0.00056. In the case of CTTAGGAGGG, the switch fluorescence ratio is reported as 0.997 ± 0.013. CTTAGGGGAT showed a switch fluorescence ratio of 1.03 ± 0.047. In the case of CTTAGGGGT, the switch fluorescence ratio is reported as 1.03 ± 0.015. CTTAGGGTAG gave a switch fluorescence ratio of 1.01 ± 0.019. CTTAGTAGTA gave a switch fluorescence ratio of 0.992 ± 0.019. With CTTATAATAG the switch fluorescence ratio was 1.036 ± 0.006. CTTATAGACT gave a switch fluorescence ratio of 1.01 ± 0.011. CTTATGATTT was tested, and the switch fluorescence ratio was 0.998 ± 0.033. CTTATTAGGC gave a switch fluorescence ratio of 1.05 ± 0.042. CTTATTAGGT showed a switch fluorescence ratio of 0.985 ± 0.045. Sequence CTTATTTGGC has a switch fluorescence ratio of 1.032 ± 0.0017. With CTTCACCAAC the switch fluorescence ratio was 1.19 ± 0.013. CTTCAGGAAG gave a switch fluorescence ratio of 0.9946 ± 0.0021. CTTCATAGGG was tested, and the switch fluorescence ratio was 0.968 ± 0.024. In the case of CTTCGTGCAT, the switch fluorescence ratio is reported as 1.23 ± 0.069. Work on CTTCTCGGCG yielded a switch fluorescence ratio of 1.08 ± 0.053. Sequence CTTCTCTAGT has a switch fluorescence ratio of 0.9742 ± 0.0069. CTTCTGAGGG showed a switch fluorescence ratio of 1.02 ± 0.012. With CTTCTGGGGA the switch fluorescence ratio was 0.993 ± 0.02. In the case of CTTCTTCAGC, the switch fluorescence ratio is reported as 1.44 ± 0.061. CTTGAATTTT gave a switch fluorescence ratio of 0.988 ± 0.049. With CTTGCATAAC the switch fluorescence ratio was 3.51 ± 0.88. CTTGCGCCTG gave a switch fluorescence ratio of 1.01 ± 0.048. CTTGGAAATA was tested, and the switch fluorescence ratio was 1.02 ± 0.013. In the case of CTTGGAAGGG, the switch fluorescence ratio is reported as 0.9683 ± 0.006. Sequence CTTGGCTCTT has a switch fluorescence ratio of 0.985 ± 0.01. For CTTGGGACTT, the switch fluorescence ratio was 1 ± 0.05. CTTGGGGCTT gave a switch fluorescence ratio of 0.985 ± 0.014. With CTTGGGGGAA the switch fluorescence ratio was 0.964 ± 0.013. CTTGGGTCTG showed a switch fluorescence ratio of 1 ± 0.066. CTTGGTAGTG showed a switch fluorescence ratio of 0.959 ± 0.015. With CTTGGTCAAG the switch fluorescence ratio was 0.9834 ± 0.0062. CTTGGTGGGG gave a switch fluorescence ratio of 0.969 ± 0.031. Work on CTTGGTGTAT yielded a switch fluorescence ratio of 1.03 ± 0.086. For CTTGGTGTTG, the switch fluorescence ratio was 1.04 ± 0.065. CTTGTAACGG gave a switch fluorescence ratio of 0.975 ± 0.01. CTTGTAATTT gave a switch fluorescence ratio of 1.02 ± 0.035. In the case of CTTGTAGGGA, the switch fluorescence ratio is reported as 0.9956 ± 0.0053. CTTGTATTAG gave a switch fluorescence ratio of 1.01 ± 0.012. CTTGTCAGGG showed a switch fluorescence ratio of 0.975 ± 0.021. Work on CTTGTCGAGG yielded a switch fluorescence ratio of 0.986 ± 0.042. Work on CTTGTCTGAG yielded a switch fluorescence ratio of 0.9818 ± 0.0096. Work on CTTGTGGATG yielded a switch fluorescence ratio of 1 ± 0.029. Sequence CTTGTTAGCG has a switch fluorescence ratio of 0.9807 ± 0.0076. For CTTGTTAGGG, the switch fluorescence ratio was 0.996 ± 0.032. For CTTGTTGCCG, the switch fluorescence ratio was 1.01 ± 0.013. Sequence CTTGTTTAAC has a switch fluorescence ratio of 0.993 ± 0.035. In the case of CTTGTTTTGT, the switch fluorescence ratio is reported as 1.02 ± 0.015. In the case of CTTTAAGGTG, the switch fluorescence ratio is reported as 1.39 ± 0.062. CTTTACACAG gave a switch fluorescence ratio of 1.0006 ± 0.00047. For CTTTAGGTGG, the switch fluorescence ratio was 1.03 ± 0.037. CTTTATGTCG gave a switch fluorescence ratio of 1.02 ± 0.048. With CTTTATGTTT the switch fluorescence ratio was 0.991 ± 0.015. In the case of CTTTATTGGG, the switch fluorescence ratio is reported as 0.972 ± 0.02. In the case of CTTTATTTAG, the switch fluorescence ratio is reported as 0.997 ± 0.023. For CTTTATTTGC, the switch fluorescence ratio was 1.05 ± 0.021. Sequence CTTTCATCTA has a switch fluorescence ratio of 1.01 ± 0.03. CTTTCCCCGT showed a switch fluorescence ratio of 1.396 ± 0.0017. For CTTTCCGTGC, the switch fluorescence ratio was 1.32 ± 0.035. CTTTCTAAGG showed a switch fluorescence ratio of 1.02 ± 0.036. CTTTCTTTGG showed a switch fluorescence ratio of 0.99 ± 0.018. With CTTTGAAAA the switch fluorescence ratio was 1.02 ± 0.02. CTTTGAAGAG showed a switch fluorescence ratio of 1.017 ± 0.0058. CTTTGAAGTT gave a switch fluorescence ratio of 1.01 ± 0.029. CTTTGCGTTT showed a switch fluorescence ratio of 1.02 ± 0.093. In the case of CTTTGGAGAC, the switch fluorescence ratio is reported as 1.06 ± 0.051. CTTTGGGCCC showed a switch fluorescence ratio of 0.98271 ± 0.0009. CTTTGTATTC was tested, and the switch fluorescence ratio was 1.04 ± 0.022. CTTTGTCTTA was tested, and the switch fluorescence ratio was 0.999 ± 0.05. Sequence CTTTGTGCGT has a switch fluorescence ratio of 0.99 ± 0.029. Sequence CTTTTACTCG has a switch fluorescence ratio of 1.01 ± 0.073. CTTTTAGGA was tested, and the switch fluorescence ratio was 0.995 ± 0.021. CTTTTATCAC gave a switch fluorescence ratio of 1.25 ± 0.43. With CTTTTATGGG the switch fluorescence ratio was 0.993 ± 0.023. For CTTTTCTTCA, the switch fluorescence ratio was 1.01 ± 0.046. CTTTTGGGGG showed a switch fluorescence ratio of 0.991 ± 0.028. CTTTTGTGTC was tested, and the switch fluorescence ratio was 0.9866 ± 0.0071. CTTTTTAGTC gave a switch fluorescence ratio of 1.03 ± 0.013. Sequence CTTTTTATGG has a switch fluorescence ratio of 1.03 ± 0.033. Sequence CTTTTTGAGG has a switch fluorescence ratio of 0.983 ± 0.048. For CTTTTTGGTA, the switch fluorescence ratio was 0.9975 ± 0.0084. With CTTTTTTTTC the switch fluorescence ratio was 1.03 ± 0.078. With GAAAAAAAGA the switch fluorescence ratio was 1 ± 0.021.
